Data taken from publication doi:10.1101/2021.02.17.431492 (bioRxiv, 2021).

Molecular target: batCoV-SHC014 S-2P (spike ectodomain) (Bat SARS-like coronavirus RsSHC014, UniProt U5WLK5, stabilised)
Assay: ELISA

B1: DH1047 (cross-neutralizing RBD antibody), IgG (antibody, V domains shown)
VH: QVQLVQSGAEVKKPGASVQVSCQASANTFTNHYIHWVRQAPGQGLEWMGIIYPTGGNTIYAQGFQGRVTMTRDTSLNTIYLELSSLRSEDTAVYYCARDVRVDDSWSGYDLLSGGTYFDYWGQGTLVTVSS
VL: not shown
binding result: binds
